Experimental data from publication PMC4020580.

Target: bovine trypsin (bovine)

stoichiometry of inhibition (SI) of bovine trypsin | Substance
1.1 | labeled single-Cys S47C α1AT (natural protein)
1.1 | labeled single-Cys S313C α1AT (natural protein)
1.1 | α1AT Ser313Cys double-Cys variant (2Cys313), unlabeled (natural protein)
